Assay results taken from PMC7525811 (Molecular Biology of the Cell, 2020).
No end group written: not given here. MBP = not defined here

Each molecule was assayed against T1, full-length human CRM1 (wild type) (human, UniProt O14980 1-1071) (assay: differential photobleaching). Settings: not given.
T1 sequence (O14980 whole entry): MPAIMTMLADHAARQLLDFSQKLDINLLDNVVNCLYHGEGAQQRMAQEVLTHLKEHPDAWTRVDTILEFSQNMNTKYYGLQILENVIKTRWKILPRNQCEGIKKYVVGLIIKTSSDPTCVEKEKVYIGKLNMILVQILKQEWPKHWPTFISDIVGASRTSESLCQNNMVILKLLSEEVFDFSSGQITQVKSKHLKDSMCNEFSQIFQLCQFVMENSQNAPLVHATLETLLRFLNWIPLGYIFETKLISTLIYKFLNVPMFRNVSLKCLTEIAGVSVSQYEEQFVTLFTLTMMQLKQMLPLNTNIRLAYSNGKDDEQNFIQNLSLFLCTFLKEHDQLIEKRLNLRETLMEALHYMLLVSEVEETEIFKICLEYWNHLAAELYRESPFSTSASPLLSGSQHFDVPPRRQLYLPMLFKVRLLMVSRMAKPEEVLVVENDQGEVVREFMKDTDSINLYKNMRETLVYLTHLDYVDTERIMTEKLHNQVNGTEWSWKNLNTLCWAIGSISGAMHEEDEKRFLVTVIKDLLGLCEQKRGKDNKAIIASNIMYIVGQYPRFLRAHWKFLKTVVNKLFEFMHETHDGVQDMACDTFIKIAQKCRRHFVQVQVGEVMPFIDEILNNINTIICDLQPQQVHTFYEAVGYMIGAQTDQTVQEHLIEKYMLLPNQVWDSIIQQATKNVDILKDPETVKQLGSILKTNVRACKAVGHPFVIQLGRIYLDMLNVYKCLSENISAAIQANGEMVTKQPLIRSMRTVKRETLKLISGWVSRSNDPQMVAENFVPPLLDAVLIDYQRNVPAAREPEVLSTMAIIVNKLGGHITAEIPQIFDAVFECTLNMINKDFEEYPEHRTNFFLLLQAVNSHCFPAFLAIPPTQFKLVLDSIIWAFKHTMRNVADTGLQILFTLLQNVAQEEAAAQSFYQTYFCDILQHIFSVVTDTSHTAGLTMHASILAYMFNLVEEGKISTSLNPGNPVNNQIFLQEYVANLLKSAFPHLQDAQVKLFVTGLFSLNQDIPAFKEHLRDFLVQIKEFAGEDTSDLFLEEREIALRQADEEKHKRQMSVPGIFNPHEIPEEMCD

| Molecule | binding result |
| --- | --- |
| YERVVSPGIDLSGLTLQ [MBP-Smad4^NES] | binds |
| TNLEALQKKLEELELDEQ [MBP-Mek1^NES] | binds |

These molecules were tested against full-length human CRM1 (WT) (Homo sapiens, UniProt O14980) (assay: not given). Settings: from photobleaching Kds.
Type: binding

full-length human CRM1 (WT), sequence (O14980 whole entry, other chains not shown): as the sequence (O14980 whole entry) above

| Molecule | tighter binding to WT CRM1 than the WT Mek1^NES [fold] |
| --- | --- |
| Mek1^NES(E41A) ({MBP}-TNLEALQKKLEELALDEQ; reading uncertain) | 14 |

The molecules below were run against T2, full-length human CRM1(E571K) (human, UniProt O14980 1-1071, E571K) (assay: not given). Settings: not given.
T2 sequence (O14980 whole entry E571K): as the sequence (O14980 whole entry) above, with E571K counted along it

| Molecule | fold tighter than to WT CRM1 [fold] | Kd [µM] |
| --- | --- | --- |
| NSNELALKLAGLDIDE [MBP-PKI^NESDE] | 3 |  |
| TNLEALQKKLEELALDEQ [MBP-Mek1^NES(E41A)] |  | 0.006 |

The molecules below were run against T1, full-length human CRM1 (wild type) (assay: not given). Settings: not given.

| Molecule | Kd [µM] |
| --- | --- |
| TNLEALQKKLEELALDEQ [MBP-Mek1^NES(E41A)] | 0.005 |

Each molecule was assayed on HEK 293 cells (assay: Immunostaining and confocal microscopy of endogenous RPS2 with and without LMB). Settings: anti-RPS2 immunostaining, presence vs absence of LMB.
Type: cell-based, human

| Molecule | subcellular localization of endogenous RPS2 upon CRM1 inhibition |
| --- | --- |
| CCC(=C/[C@H](C)C/C=C/C(C)=C/[C@@H](C)C(=O)[C@@H](C)[C@H](O)[C@@H](C)C/C(C)=C/C(=O)O)/C=C/[C@@H]1OC(=O)C=C[C@@H]1C [leptomycin B] | not affected |

These molecules were tested against full-length human CRM1(E571K) (human) (UniProt O14980) (assay: differential photobleaching). Settings: not given.
full-length human CRM1(E571K) (human), sequence (O14980 whole entry E571K): as the sequence (O14980 whole entry) above, with E571K counted along it

| Molecule | Kd [µM] |
| --- | --- |
| MBP-FMRP1b^NES (peptide) | 9 |

The molecules below were run against T2, full-length human CRM1(E571K) (assay: differential photobleaching). Settings: not given.

| Molecule | Kd [µM] |
| --- | --- |
| {MBP}-EQMVKELQEIRLEPQ (reading uncertain) [MBP-Iκβα^NES] | 21 |
| LQLPPLERLTLDC [MBP-HIV Rev^NES] | 4.1 |
| NFEILMKLKESLELMELVP [MBP-P73^NES] | 1.5 |
| YERVVSPGIDLSGLTLQ [MBP-Smad4^NES] | 13 |
| SSLQELVQQFEALPGDLV [MBP-X11L2^NES] | 1.3 |
| REELWKKLEELKLKK [MBP-PP2A B56α^NES] | 38 |
| MEELSQALASSFSVSQDLNS [MBP-Snupn1^NES] | 21 |
| TNLEALQKKLEELELDEQ [MBP-Mek1^NES] | 0.005 |
| SVPEVEALLARLRAL [MBP-mDia2^NES] | 1.5 |
| PLPVLGLGGLRISS [MBP-Dusp6^NES] | 14 |
| SVEEVEAGLKGLKVDQQVK [MBP-eIF4E-transporter NES (4E-T^NES)] | 14 |
| RTFDMHSLESSIDIMR [MBP-Cpeb4^NES] | 1.9 |
| RELDELMASLSDFKFMA [MBP-Paxillin^NES] | 3.1 |
| RSFEMTEFNQALEEIKG [MBP-hRio2^NES] | 1.9 |
| {MBP}-SLVLLPFDDLKISG (reading uncertain) [MBP-Iκβε^NES] | 12 |

Molecular target: T1, full-length human CRM1 (wild type)
Assay: differential photobleaching
Settings: not given
Remark: another data set of the same source

| Molecule | Kd [µM] |
| --- | --- |
| {MBP}-EQMVKELQEIRLEPQ (reading uncertain) [MBP-Iκβα^NES] | 22 |
| REELWKKLEELKLKK [MBP-PP2A B56α^NES] | 4.4 |
| SVEEVEAGLKGLKVDQQVK [MBP-eIF4E-transporter NES (4E-T^NES)] | 1.4 |
| {MBP}-SLVLLPFDDLKISG (reading uncertain) [MBP-Iκβε^NES] | 3.6 |

The molecules below were run against CRM1(E571K) (Homo sapiens, UniProt O14980, E571K) (assay: not given). Settings: from photobleaching Kds.
Type: binding

CRM1(E571K), sequence (O14980 whole entry E571K, other chains not shown): as the sequence (O14980 whole entry) above, with E571K counted along it

| Molecule | weaker binding to CRM1(E571K) than to WT CRM1 | tighter (stronger) binding to CRM1(E571K) than to WT CRM1 [fold] |
| --- | --- | --- |
| REELWKKLEELKLKK [PP2A B56α^NES] | 4–10 fold |  |
| RELDELMASLSDFKFMA [Paxillin^NES] | 4–10 fold |  |
| TNLEALQKKLEELELDEQ [Mek1^NES] |  | 14 |

Same assay, conditions: ratio of Kds from differential photobleaching assays

| Molecule | Kd,E571K/Kd,WT |
| --- | --- |
| RSFEMTEFNQALEEIKG [hRio2^NES] | 0.79 |
| RTFDMHSLESSIDIMR [Cpeb4^NES] | 3.2 |
| SLVLLPFDDLKISG [Iκβε^NES] | 3.3 |
| LQLPPLERLTLDC [HIV Rev^NES] | 2.3 |
| SVEEVEAGLKGLKVDQQVK [eIF4E-transporter (4E-T^NES)] | 10 |
| NFEILMKLKESLELMELVP [P73^NES] | 0.75 |
| MEELSQALASSFSVSQDLNS [Snupn1^NES] | 1.8 |
| Paxillin^NES(K277A) ({MBP}-RELDELMASLSDFAFMA; reading uncertain) | 2.1 |
| REELWKKLEELKLKK [PP2A B56α^NES] | 8.6 |
| LKEVDQLRALERLQID [FMRP1b^NES] | 3.0 |
| EQMVKELQEIRLEPQ [Iκβα^NES] | 0.95 |
| SVPEVEALLARLRAL [mDia2^NES] | 0.88 |
| RELDELMASLSDFKFMA [Paxillin^NES] | 4.6 |
| SSLQELVQQFEALPGDLV [X11L2^NES] | 0.87 |
| YERVVSPGIDLSGLTLQ [Smad4^NES] | 2.8 |
| TNLEALQKKLEELELDEQ [Mek1^NES] | 0.071 |

The molecules below were run against full-length human CRM1(E571K) (human) (UniProt O14980) (assay: fluorescence polarisation). Settings: not given.

| Molecule | fold weaker than to WT CRM1 [fold] |
| --- | --- |
| MBP-RPS2^NES (putative NES of 40S ribosomal protein S2) (peptide) | 16 |
